The values below come from publication PMC5972394.

The target in this experiment is Mycobacterium thermoresistible (Mth) IMPDH ΔCBS (Mycobacterium thermoresistible). In words: crystal structure.

In general, stoichiometry N refers to a count of units in the complex or per binding partner. For the substance “Mycobacterium thermoresistible (Mth) IMPDH ΔCBS (enzyme)”, the stoichiometry N turned out to be 4.
